According to US20260108607A1 (BEIJING DCTY BIOTECH, published 2026):
Residue numbers refer to the chain shown, from its start.

Columns and labels:
[1] = target: T1, EGFRvIII target antigen (SPR ligand) (UniProt P00533 25-645, limits assumed); experiment: SPR; antibody as analyte
T1 construct: also called EGFRvIII antigen

[2] = target: T2, EGFRvIII overexpressed on target cells (UniProt P00533 25-1210); experiment: flow cytometry of the subclone supernatant on F98npEGFRvIII cells (Geom mean)
T2 construct: whole, on cells; Same protein on two cell lines: F98npEGFRvIII for flow cytometry, U87MG-EGFRvIII for the killing assays; also called F98npEGFRvIII; U87MG-EGFRvIII

[3] = target: T3, EGFR (wild type) expressed on target cells (UniProt P00533 25-1210, limits assumed); experiment: flow cytometry of the subclone supernatant on F98npEGFR cells (Geom mean)
T3 construct: whole, on cells; also called F98npEGFR; U87MG-EGFR

[4] = target: T1, EGFRvIII target antigen (SPR ligand); experiment: SPR
[5] = target: T1, EGFRvIII target antigen (SPR ligand); experiment: SPR; antibody as analyte; remark: listed apart in the source
[6] = target: T1, EGFRvIII target antigen (SPR ligand); experiment: SPR; EGFRvIII as ligand, antibody as analyte

B1: humanized antibody 28-H3 (84C3G8H7-VH3 + VL1) (scFv)
scFv: QVQLVQSGAEVKKPGASVKVSCKASGFNIKDYYMHWVRQAPGQRLEWIGWIDPENGNTIYDPKFQGRATITADTSASTAYMELSSLRSEDTAVYYCARGWFAYWGQGTLVTVSSGGGGSGGGGSGGGGSGGGGSDIVMTQSPDSLAVSLGERATINCKSSQSLLNSSNQKNHLAWYQQKPGQPPKLLIYFASTRASGVPDRFSGSGSGTDFTLTISSLQAEDVAVYYCQQHYSTPLTFGGGTKLELK
notes: the format in the SPR assay is not clearly stated
[1]
  Kd: 167 nM
  koff: 0.0221 s⁻¹
  kon: 132000 M⁻¹ s⁻¹

B2: humanized antibody 28-H7 (84C3G8H7-VH3 + VL1(PTM)) (scFv)
scFv: B1 scFv with A195G
notes: as for B1
[1]
  Kd: 77.2 nM
  koff: 0.0112 s⁻¹
  kon: 146000 M⁻¹ s⁻¹

B3: humanized antibody 28-H9 (84C3G8H7-VH4 + VL1(PTM)) (scFv)
scFv: B1 scFv with R38K, S77N, A195G
notes: as for B1
[1]
  Kd: 47.5 nM
  koff: 0.00665 s⁻¹
  kon: 140000 M⁻¹ s⁻¹

B4: humanized antibody 28-H4 (84C3G8H7-VH3 + VL2) (scFv)
scFv: B1 scFv with I188V, Y227F
notes: as for B1
[1]
  Kd: 154 nM
  koff: 0.0206 s⁻¹
  kon: 134000 M⁻¹ s⁻¹

B5: humanized antibody 28-H5 (84C3G8H7-VH4 + VL1) (scFv)
scFv: B1 scFv with R38K, S77N
notes: as for B1
[1]
  Kd: 80.3 nM
  koff: 0.00891 s⁻¹
  kon: 111000 M⁻¹ s⁻¹

B6: humanized antibody 28-H8 (84C3G8H7-VH3 + VL2(PTM)) (scFv)
scFv: B1 scFv with I188V, A195G, Y227F
notes: as for B1
[1]
  Kd: 72.6 nM
  koff: 0.0103 s⁻¹
  kon: 142000 M⁻¹ s⁻¹

B7: 20-2-13 (antibody, V domains shown)
VH: QVQLQQPGAELVKPGASVKLSCKASGYSFTRYWMHWVKQRPGQGLEWIGEINPSNGRANYNEKFMSKATLTVDKSSSTAYMQLSSLTSEDSAVYYCARGREITTGFAYWGQGTLVTVSA
VL: SIVMTQTPKFLLVSAGDRVTITCKASQSVSNDVVWYQQKPGQSPKLLIYYASNRYTGVPDRFTGSGYGTDFTFTITTVQAEDLAVYFCQQDYSSPWTFGGGTKLEIK
notes: also called 90F6C1
[2]
  binding result: binds
[3]
  binding result: no binding

B8: humanized antibody 40-2-H11 (98G2E9-VH5 + VL7) (scFv)
scFv: EVQLLESGGGLVQPGGSLKLSCAASGFTFSGYAMSWVRQTPGKGLEWVATITSGGSYTYYPDSVKGRFTISRDNSKNTLYLQMNSLRAEDTAMYYCARKDYGNYWFAYWGQGTLVTVSSGGGGSGGGGSGGGGSGGGGSDVVMTQSPLSLPVTLGDQASISCRSSQSLVHSDGNTYLHWYLQKPGQSPKLLIYKVSNRFSGVPDRFSGSGSGTDFTLKISRVEAEDVGVYFCSQTTQVPWTFGGGTKLEIK
notes: as for B1
[4]
  fold reduction of affinity against the murine antibody from clone #40-2: ~2 fold
[5]
  Kd: 138 nM
  koff: 0.00343 s⁻¹
  kon: 24800 M⁻¹ s⁻¹

B9: 20-2-25 (antibody, V domains shown)
VH: EVQLQQSGAELVRPGALVKLSCKASGFNIKDYYMHWVKQRPEQGLEWIGWIDPENGNTIYDPKFQGKASITADTSSNTAYLQLSSLTSEDTAVYYCARGYLVYWGQGTLVTVSA
VL: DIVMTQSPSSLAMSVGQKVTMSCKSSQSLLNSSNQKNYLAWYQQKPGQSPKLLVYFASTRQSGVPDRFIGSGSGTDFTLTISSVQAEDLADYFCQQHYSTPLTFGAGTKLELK
notes: the antibody in the subclone supernatant, not the CAR m26; also called 70B6F6H11
[2]
  binding result: binds
[3]
  binding result: no binding

B10: 84C3G8H7-chimeric-scFv (20-2-28) (scFv, V domains shown)
VH: B9 VH with Y100W, L101F, V102A
VL: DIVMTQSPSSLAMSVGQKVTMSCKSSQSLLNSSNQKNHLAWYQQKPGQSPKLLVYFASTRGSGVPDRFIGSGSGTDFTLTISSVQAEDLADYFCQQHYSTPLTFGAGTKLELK
[1]
  Kd: 59 nM
  koff: 0.00883 s⁻¹
  kon: 150000 M⁻¹ s⁻¹

B11: murine antibody 20-2-28 (clone 84C3G8H7) (antibody, V domains shown)
VH: B9 VH with Y100W, L101F, V102A
VL: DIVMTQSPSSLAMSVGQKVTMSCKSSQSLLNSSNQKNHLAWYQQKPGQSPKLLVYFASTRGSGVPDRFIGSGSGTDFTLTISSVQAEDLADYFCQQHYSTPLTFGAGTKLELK
notes: Murine monoclonal antibody purified from the subclone supernatant; also called clone #28
[3]
  binding result: no binding
[6]
  koff: 0.0165 s⁻¹

B12: 20-2-34 (antibody, V domains shown)
VH: B9 VH
VL: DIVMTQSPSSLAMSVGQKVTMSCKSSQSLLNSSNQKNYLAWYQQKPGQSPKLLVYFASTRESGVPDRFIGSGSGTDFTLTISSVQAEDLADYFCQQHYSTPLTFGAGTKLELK
notes: the antibody in the subclone supernatant, not the CAR m28; also called 84G9F9
[2]
  binding result: binds
[3]
  binding result: no binding

B13: 20-2-22 (antibody, V domains shown)
VH: B9 VH with Y80C, Y100W, L101F, V102A
VL: DILMTQSPSSLAMSVGQKVTMSCKSSQSLLNSSNQKNHLAWYQQKPGQSPKLLVYFASTRQSGVPDRFIGSGSGTDFTLTISSVQAEDLADYFCQQHYSTPLTFGAGTKLELK
notes: also called 57D8C3
[2]
  binding result: binds
[3]
  binding result: no binding

B14: murine antibody 20-2-4 (clone 88A3C8) (antibody, V domains shown)
VH: B9 VH with Y100W, L101F, V102A
VL: B13 VL with Q61A
notes: Murine monoclonal antibody purified from the subclone supernatant; also called clone #4
[3]
  binding result: no binding
[6]
  koff: 0.00864 s⁻¹

B15: 20-2-31 (antibody, V domains shown)
VH: B9 VH
VL: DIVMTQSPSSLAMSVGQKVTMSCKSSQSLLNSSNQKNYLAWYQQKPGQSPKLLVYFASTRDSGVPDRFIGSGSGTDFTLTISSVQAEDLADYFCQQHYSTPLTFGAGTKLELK
notes: also called 95G10G8E4
[2]
  binding result: binds
[3]
  binding result: no binding

B16: 20-2-16 (antibody, V domains shown)
VH: B9 VH with S69T
VL: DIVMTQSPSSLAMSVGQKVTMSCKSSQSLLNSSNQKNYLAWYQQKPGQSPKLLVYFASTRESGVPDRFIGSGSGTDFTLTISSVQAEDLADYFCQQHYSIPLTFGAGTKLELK
notes: also called 90H3D2
[2]
  binding result: binds
[3]
  binding result: no binding

B17: 20-2-19 (antibody, V domains shown)
VH: B9 VH with V102A
VL: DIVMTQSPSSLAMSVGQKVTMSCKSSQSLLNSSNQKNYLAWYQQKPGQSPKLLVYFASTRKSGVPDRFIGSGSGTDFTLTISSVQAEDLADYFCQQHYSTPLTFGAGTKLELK
notes: also called 53H2H7 (recombinantly expressed)
[2]
  binding result: binds
[3]
  binding result: no binding

B18: 20-2-10 (antibody, V domains shown)
VH: B9 VH with E10D, M34L, V102T
VL: B13 VL with L3V, S22N, S28N, H38Y, Y42F, Q61Y, I69M, I81V
notes: also called 75H11B1
[2]
  binding result: binds
[3]
  binding result: no binding

B19: 20-2-52 (antibody, V domains shown)
VH: QIQLVQSGPELKKPGETVKISCKASGYTFINYGMNWVKQTPGKGLKWMGWINTYTGEPTYADDFKGRFAFSLETSASTAYLQINNLKNEDMATYFCSREEFYSRGAMDYWGQGTSVTVSS
VL: DVLMTQTPLSLPVSLGDQASISCRSSQFIVHSNGNTYLEWYLQKPGQSPKLLIYKISNRFSGVPDRFSGSGSGTDFTLKISRVEAEDLGVYYCFQGSHVPFTFGSGTKLEIK
notes: also called 124A5F2
[2]
  binding result: binds
[3]
  binding result: no binding

B20: 20-2-37 (antibody, V domains shown)
VH: EVMLVESGGGLVKPGGSLKLSCAASRFTFSNYAMSWVRQTPEKRLEWVATITSGGSYTYYPDSVKGRFTISRDNAKNTLYLQMSSLRSEDTAMYYCARKDYGNYWFAYWGQGTLVTVSA
VL: DVVMTQTPLSLPVSLGDQASISCRSSQSLVHSDGNTYLHWYLQKPGQSPKLLIYKVSNRFSGVPDRFSGSGSGTDFTLKISRVEAEDLGVYFCSQSIHVPWTFGGGTKLEIK
notes: also called 98B10B12
[3]
  binding result: no binding

B21: chimeric-VH + VL of clone 20-2-40-2 (98G2E9) (antibody, V domains shown)
VH: B20 VH with M3L, R26G, N31G
VL: B20 VL with S96T, I97T, H98Q
notes: also called clone #40-2
[5]
  Kd: 49.9 nM
  koff: 0.00181 s⁻¹
  kon: 36200 M⁻¹ s⁻¹

B22: murine antibody 20-2-1 (clone 83F7B2) (antibody, V domains shown)
VH: QIQLVQSGPELKKPGETVKISCKASGYTFTDFSMHWVKQAPGKGLKWMGWINTETGEPSYADDFKGRFAFSLETSASTAYLQINNLKNEDTATYFCANYGYDVRGDYWGQGTTLTVSS
VL: EIVLTQSPTTMAASPGEKITITCSASSSISSNYLHWYQQKPGFSPKLLIYGTSNLASGVPARFSGSGSGTSYSLTIGTMEAEDVATYYCHQGSSIPLTFGAGTKLELK
notes: Murine monoclonal antibody purified from the subclone supernatant
[3]
  binding result: no binding
[6]
  Kd: 23.7 nM
  koff: 0.00119 s⁻¹
  kon: 50100 M⁻¹ s⁻¹

B23: 20-2-7 (antibody, V domains shown)
VH: B22 VH with F32Y, M34I, S59T, A97S
VL: B22 VL with K18N, S28G, K46E, G51S, S94D, K104R
notes: also called 89C2A11
[2]
  binding result: binds
[3]
  binding result: no binding

B24: 20-2-43 (antibody, V domains shown)
VH: DVQLQESGPDLVKPSQSLSLNCTVTGYSITSGYSWHWIRQFPGNKLEWMGYIHYSGSTNYNPPLKSRIFIARDTSKNQFFLQLTSVTTEDTATYYCARGVVSNYAMGNWGQGTSVTVSS
VL: ETTVTQSPASLSMAIGEKVTIRCITNTDIDDDMNWYQQKPGEPPKLLISEGNTLRPGVPSRFSSSGYGTDFVFTIENMLSEDVADYYCLQSDDLPLTFGSGTKLEIK
notes: also called 115A10H4
[3]
  binding result: no binding

B25: 20-2-55 (antibody, V domains shown)
VH: QIQLQQSGPELVKPGASVKISCKASGYSFTDYYINWVKQKPGQGLEWIGWIYPGSGNTKYNEKFKGKATLTVDTSSSTAYMQLNSLTSEDTAVYFCARSSRCDFWGQGTTLTVSS
VL: DIQMTQSASSFSVSLGDSVTITCKASEDIYNRLAWYQQKPGNTPRLLISGATSLETGVPSRFSGSGSGKDYTLSITSLQTEDVATYYCQQYWSSPLTFGSGTKLELK
notes: also called 136C11E7
[2]
  binding result: binds
[3]
  binding result: no binding

B26: 20-2-49 (antibody, V domains shown)
VH: QVQLQQSGAELAKPGASVKMSCKASAYTFTTYWMHWVKQRPGQGLEWIGYINPNTAYTEYNQNFKDKATLTADKSSSTAYMQLGSLTSEDSAVYYCARGAYYRTYYAMDYWGQGTSVTVSS
VL: DIVLTQSPASLAVSLGQRATISCKASQSVDYDGDSYMNWYQQKPGQPPKLLIYAASNLESGIPARFSGSGSGTDFTLNIHPVEEEDAATYYCLQSNEDPYTFGGGTRLEIN
notes: also called 121E9D12
[2]
  binding result: binds
[3]
  binding result: no binding
